US20080118498A1 (Eli Lilly, published 2008)
Each block holds one binder with its values, some of them ahead of it.

Assays:
[1] = target: T1, C8 acylated human ghrelin (1-28) (human, n-octanoyl group on the serine at position three (Ser3)); test: KinExA solution equilibrium; constant Fab, ghrelin titrated, free Fab captured on biotin-C8-ghrelin streptavidin beads
T1 construct: 28-residue peptide hormone; In the first KinExA experiment a biotinylated form was on the beads and the unlabelled peptide was titrated in solution; also called Human C8 ghrelin; human C8 acylated ghrelin (1-28)
Method: The KinExA 3000 instrument, manufactured by Sapidyne, is used to measure binding kinetics. Briefly, streptavidin is covalently coupled to azlactone beads. Biotinylated C8 acylated human ghrelin (1-28) is subsequently bound to these streptavidin beads. The binding of free anti-ghrelin Fab to the beads is detected on the instrument.
To measure Kds, individual tubes containing a constant concentration of 20-100 pM of Fab with decreasing serially diluted C8 acylated human ghrelin (1-28) are incubated for 18 h at 20° C. in 0.1% BSA, PBS. […] For example, clone 4a1 is used at a constant concentration of 20 pM and individual tubes are incubated with 0-20 nM of ghrelin. Incubations for other Fabs are set in a similar manner. After incubation, free Fab in each equilibrated sample is determined on the KinExA 3000 instrument according to the manufacturer's instructions. Kd values are determined using the KinExA 3000 software.

[2] = target: T2, Rat C8 ghrelin (28 amino acids, C8-acylated) (rat, UniProt Q9QYH7 24-51, C8-acylated (n-octanoyl; octanoylated at Ser3 as told for rat ghrelin in paragraph 40)); test: BIAcore SPR; Mab amine-coupled to CM5 chip, ghrelin injected, n = 2
T2 construct: mature; the assay used the 28-residue peptide; also called C8-acylated rat ghrelin
T2 peptide (looked up): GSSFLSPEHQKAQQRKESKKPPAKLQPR
Method: (§1) The affinity (Kd) of humanized C2 anti-ghrelin Mabs is measured using a BIAcore® 2000 instrument containing a CM5 sensor chip. The BIAcore® utilizes the optical properties of surface plasmon resonance to detect alterations in protein concentration of interacting molecules within a dextran biosensor matrix. Except where noted, all reagents and materials are purchased from BIAcore® AB (Uppsala, Sweden). All measurements are performed at about 25° C. All samples containing either rat or human ghrelin (full length, C8- or C10-acylated, or desacylated) and anti-ghrelin Fab or Mab are diluted in HBS-EP buffer (150 mM sodium chloride, 3 mM EDTA, 0.005% (w/v) surfactant P-20, and 10 mM HEPES, pH 7.4). A capture antibody, goat anti-mouse kappa (Southern Biotechnology, Inc), or goat anti-mouse Fc gamma (Jackson ImmunoResearch), is immobilized onto flow cells using amine-coupling chemistry. Flow cells (1-4) are activated for 7 minutes with a 1:1 mixture of 0.1 M N-hydroxysuccinimide and 0.1 M 3-(N,N-dimethylamino)propyl-N-ethylcarbodiimide at a flow rate of 10 μl/min. The capture antibody, for example goat anti-mouse kappa, is diluted to 30 μg/mL in 10 mM sodium acetate, pH 4.5, and manually injected over all four flow cells at a flow rate of 10 μL/min. The surface density is monitored, and additional capture antibody is injected as needed to each individual cell until all flow cells reach a surface density of 4500-5000 response units (RU). Surfaces are blocked with a seven minute injection of 1 M ethanolamine-HCl, pH 8.5(10 μL/min). To ensure complete removal of any noncovalently bound capture antibody, 15 μL of 10 mM glycine, pH 1.5, are injected twice. Running buffer for kinetic experiments is HBS-EP buffer (150 mM sodium chloride, 3 mM EDTA, 0.005% (w/v) surfactant P-20, and 10 mM HEPES, pH 7.4). For C2_{—}4A1, 5A1, and 7A1, the antibody is directly coupled to a CM5 chip using the amine-coupling chemistry described above, aiming for a surface density of between 800-1000 RU.
(§2) Collection of kinetic binding data is performed at maximum flow rate (100 μL/min) and a low surface density to minimize mass transport effects.

[3] = target: T1, C8 acylated human ghrelin (1-28); test: as above
Method: as §1, §2

[4] = target: T2, Rat C8 ghrelin (28 amino acids, …); test: BIAcore SPR; Mab captured by goat anti-mouse kappa or anti-mouse Fc gamma, ghrelin injected, n = 7
Method: as §1, with “RU. […]” for “RU.”

Human C10 ghrelin (1-28) [5] = target: T3, Human C10 ghrelin (1-28) (human, n-decanoyl group on Ser3 (C10-acylated)); test: BIAcore SPR; Mab captured by goat anti-mouse kappa or anti-mouse Fc gamma, ghrelin injected, n = 6
T3 construct: also called decanoyl ghrelin (1-28)
Method: as §1, with “RU. […]” for “RU.”

[6] = target: T1, C8 acylated human ghrelin (1-28); test: KinExA solution equilibrium; C8 ghrelin coupled to azlactone beads, n-curve analysis, n = 2
Method: (§3) Briefly, 10 μg human C8 acylated ghrelin (1-28) is covalently coupled to 50 mg azlactone beads (Sapidyne). […] For example, anti-ghrelin C2 murine Fab is used at a constant concentration of either 60, 600, or 6000 pM, and individual tubes are incubated with 0-60, 0-100, or 0-1000 nM of ghrelin, respectively. After the incubation, free Fab or Mab in each equilibrated sample is determined on the KinExA 3000 instrument according to the manufacturer's instructions. Kd values are assessed using the KinEkA 3000 n-curve analysis software.

[7] = target: T1, C8 acylated human ghrelin (1-28); test: BIAcore SPR; Mab captured by goat anti-mouse kappa or anti-mouse Fc gamma, ghrelin injected, n = 11
Method: as §1, with “RU. […]” for “RU.”

[8] = target: T1, C8 acylated human ghrelin (1-28); test: KinExA solution equilibrium; C8 ghrelin coupled to azlactone beads, n-curve analysis, n = 3
Method: as §3

[9] = target: T1, C8 acylated human ghrelin (1-28); test: BIAcore SPR; Fab captured by goat anti-mouse kappa, ghrelin injected, n = 8
Method: as §1, with “RU. […]” for “RU.”

Human C10 ghrelin (1-28) [10] = target: T3, Human C10 ghrelin (1-28); test: BIAcore SPR; Fab captured by goat anti-mouse kappa, ghrelin injected, n = 3
Method: as §1, with “RU. […]” for “RU.”

[11] = target: T2, Rat C8 ghrelin (28 amino acids, …); test: BIAcore SPR; Fab captured by goat anti-mouse kappa, ghrelin injected, n = 5
Method: as §1, with “RU. […]” for “RU.”

T3 sequence (peptide, as listed by the source): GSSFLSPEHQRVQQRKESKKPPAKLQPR

B1: Humanized, affinity matured C2 anti-ghrelin Fab 7b2 (Fab, V domains shown)
VH: QVQLVQSGAEVKKPGASVKVSCKATGYIFTGYWIEWVRQAPGQGLEWMGDILPGSGSPNYNEKFKGRVTMTTDTSTSTAYMELRSLRSDDTAVYYCARYPIFRLRTERIAEWGQGTLVTVSS
VL: DIVMTQSPDSLAVSLGERATINCRASKSVSLLGYSYMHWYQQKPGQPPKLLIYFASNLESGVPDRFSGSGSGTDFTLTISSLQAEDVAVYYCQHSIEEPYTFGQGTKLEIK
notes: Fab; The constant domains are not described
Kd [1]: 0.0253 nM

B3: Humanized, affinity matured C2 anti-ghrelin Fab 7a1 (Fab, V domains shown)
VH: QVQLVQSGAEVKKPGASVKVSCKATGYIFTGYWIEWVRQAPGQGLEWMGDILPGSGSPNYNEKFKGRVTMTTDTSTSTAYMELRSLRSDDTAVYYCARYPIFRPRTERIAYWGQGTLVTVSS
VL: DIVMTQSPDSLAVSLGERATINCRASKSVSLLGYSYMHWYQQKPGQPPKLLIYFASNLESGVPDRFSGSGSGTDFTLTISSLQAEDVAVYYCQHSVEEPYTFGQGTKLEIK
notes: Fab; The constant domains are not described for this clone
Kd [1]: 0.0042 nM

B5: Humanized, affinity matured C2 anti-ghrelin Fab 5a1 (Fab, V domains shown)
VH: QVQLVQSGAEVKKPGASVKVSCKATGYIFTGYWIEWVRQAPGQGLEWMGDILPGSGSPNYNEKFKGRVTMTTDTSTSTAYMELRSLRSDDTAVYYCARYPIFRLRTERIAEWGQGTLVTVSS
VL: DIVMTQSPDSLAVSLGERATINCRASKSVSLSGYSYMHWYQQKPGQPPKLLIYFASNLESGVPDRFSGSGSGTDFTLTISSLQAEDVAVYYCQHSIEEPYTFGQGTKLEIK
notes: Fab; The constant domains are not described for this clone; also called Fab C2-5a1
Kd [1]: 0.001 nM

B6: C2 chimeric Fab (heavy and light chain variable regions of C2 murine Fab 1111 fused to human CH1 and CL domains) (Fab, V domains shown)
VH: EIQLQQSGAELMKPGASVKLSCKATGYIFTGYWIEWVKQRPGHGLEWIGEILPGSGSTNYNEKFKGKATFTADTSSNTANMQLSSLTTEDSAIYYCARYPQFRLRRERIAYWGQGTLVTVSV
VL: DLVLTQSPASLAVSLGQRATISCRASKSVSTSGYSYMHWYQQKPGQPPKLLIYLASNLESGVPARFSGSGSGTDFTLNIHPVEEEDAATYYCQHSRELPYTFGAGTKLELKR
Kd [1]: 1.1 nM

B8: Mab C2 (full murine sequence, i.e., Fab 1111 VH/VL and murine Fc) (antibody, V domains shown)
VH: EIQLQQSGAELMKPGASVKLSCKATGYIFTGYWIEWVKQRPGHGLEWIGEILPGSGSTNYNEKFKGKATFTADTSSNTANMQLSSLTTEDSAIYYCARYPQFRLRRERIAYWGQGTLVTVSV
VL: DLVLTQSPASLAVSLGQRATISCRASKSVSTSGYSYMHWYQQKPGQPPKLLIYLASNLESGVPARFSGSGSGTDFTLNIHPVEEEDAATYYCQHSRELPYTFGAGTKLELKR
notes: Full-length murine antibody with a kappa light chain (it was captured with anti-mouse kappa); also called Anti-ghrelin C2 Mab
Kd [4]: 2.6 nM | koff [4]: 0.0018 s⁻¹ | kon [4]: 800000 M⁻¹ s⁻¹ | Kd (Human C10 ghrelin (1-28) [5]): 4.1 nM | koff (Human C10 ghrelin (1-28) [5]): 0.0092 s⁻¹ | kon (Human C10 ghrelin (1-28) [5]): 1.9e+06 M⁻¹ s⁻¹ | Kd [6]: 1.44 nM | Kd [7]: 0.779 nM | koff [7]: 0.0015 s⁻¹ | kon [7]: 2.4e+06 M⁻¹ s⁻¹

B9: C2 murine Fab 1111 (Fab, V domains shown)
VH: EIQLQQSGAELMKPGASVKLSCKATGYIFTGYWIEWVKQRPGHGLEWIGEILPGSGSTNYNEKFKGKATFTADTSSNTANMQLSSLTTEDSAIYYCARYPQFRLRRERIAYWGQGTLVTVSV
VL: DLVLTQSPASLAVSLGQRATISCRASKSVSTSGYSYMHWYQQKPGQPPKLLIYLASNLESGVPARFSGSGSGTDFTLNIHPVEEEDAATYYCQHSRELPYTFGAGTKLELKR
notes: also called Anti-ghrelin C2 Fab (Fab1111)
Kd [8]: 1.03 nM | Kd [9]: 0.953 nM | koff [9]: 0.0016 s⁻¹ | kon [9]: 1.7e+06 M⁻¹ s⁻¹ | Kd (Human C10 ghrelin (1-28) [10]): 4.55 nM | koff (Human C10 ghrelin (1-28) [10]): 0.0088 s⁻¹ | kon (Human C10 ghrelin (1-28) [10]): 2.1e+06 M⁻¹ s⁻¹ | Kd [11]: 1.23 nM | koff [11]: 0.0016 s⁻¹ | kon [11]: 1.4e+06 M⁻¹ s⁻¹

Next, values leading:

Kd [2]: 0.02 nM | koff [2]: 0.00012 s⁻¹ | kon [2]: 6.6e+06 M⁻¹ s⁻¹ | Kd [3]: 0.013 nM | koff [3]: 0.00012 s⁻¹ | kon [3]: 8.6e+06 M⁻¹ s⁻¹
B2: Mab C2_5A1 (humanized, affinity matured VH/VL (Fab C2-5a1 sequences) with rat Fc chimeric C2 anti-ghrelin antibody) (antibody, V domains shown)
VH: QVQLVQSGAEVKKPGASVKVSCKATGYIFTGYWIEWVRQAPGQGLEWMGDILPGSGSPNYNEKFKGRVTMTTDTSTSTAYMELRSLRSDDTAVYYCARYPIFRLRTERIAEWGQGTLVTVSS
VL: DIVMTQSPDSLAVSLGERATINCRASKSVSLSGYSYMHWYQQKPGQPPKLLIYFASNLESGVPDRFSGSGSGTDFTLTISSLQAEDVAVYYCQHSIEEPYTFGQGTKLEIK
notes: Humanized VH/VL with rat Fc; also called C2-5a1 antibody

Kd [3]: 0.012 nM | koff [3]: 0.00013 s⁻¹ | kon [3]: 1e+07 M⁻¹ s⁻¹
B4: Mab C2_7A1 (human VH/VL with rat Fc chimera) (antibody, V domains shown)
VH: QVQLVQSGAEVKKPGASVKVSCKATGYIFTGYWIEWVRQAPGQGLEWMGDILPGSGSPNYNEKFKGRVTMTTDTSTSTAYMELRSLRSDDTAVYYCARYPIFRPRTERIAYWGQGTLVTVSS
VL: DIVMTQSPDSLAVSLGERATINCRASKSVSLLGYSYMHWYQQKPGQPPKLLIYFASNLESGVPDRFSGSGSGTDFTLTISSLQAEDVAVYYCQHSVEEPYTFGQGTKLEIK
notes: Humanized VH/VL with rat Fc; The Mab is tied to the Fab 7a1 variable regions by its clone name only

Kd [2]: 0.687 nM | koff [2]: 0.0019 s⁻¹ | kon [2]: 3.3e+06 M⁻¹ s⁻¹ | Kd [3]: 0.363 nM | koff [3]: 0.0028 s⁻¹ | kon [3]: 7.4e+06 M⁻¹ s⁻¹
B7: Mab C2 (murine VH/VL Fab 1111 sequences with rat Fc chimera) (antibody, V domains shown)
VH: EIQLQQSGAELMKPGASVKLSCKATGYIFTGYWIEWVKQRPGHGLEWIGEILPGSGSTNYNEKFKGKATFTADTSSNTANMQLSSLTTEDSAIYYCARYPQFRLRRERIAYWGQGTLVTVSV
VL: DLVLTQSPASLAVSLGQRATISCRASKSVSTSGYSYMHWYQQKPGQPPKLLIYLASNLESGVPARFSGSGSGTDFTLNIHPVEEEDAATYYCQHSRELPYTFGAGTKLELKR
notes: Chimera with rat Fc
